Source: article PMC3407074

Tests used:
[1] = biological target: recP12-Cd4d3/4-bio (Plasmodium falciparum); assay: SPR; BIAcore T100, 37°C; recP12 captured on a streptavidin chip; two-fold dilutions from 3.6 µM recP41-Cd4d3/4-6H at 100 µL/min; kinetic analysis, 1:1 binding model
[2] = biological target: recP12-Cd4d3/4-bio (Plasmodium falciparum); assay: SPR; BIAcore T100, 37°C; recP12-Cd4d3/4-bio captured on a streptavidin chip, biotinylated Cd4d3/4 as reference; serial dilutions of recP41-Cd4d3/4-6H at 10 µL/min; equilibrium analysis, Langmuir isotherm

Substance: recP41-Cd4d3/4-6H (domain or fragment)
- koff [1]: 0.0212 s⁻¹
- kon [1]: 134000 M⁻¹ s⁻¹
- Kd [2]: 310 nM
